Results on four molecules are retold here after patent US20140322218A1 (Amgen, published 2014).

For assay [1], the target named is T1, muCDH19(44-139)::huCDH19(142-364)::muCDH19(363-770), Flag-tagged, on 293T cells (human/mouse chimera).
T1 construct: also called Hu EC2-3; C137847
In words: FACS, transfected 293T.
Description: (§1) The experiment included assaying the anti-CDH19 antibodies against mouse Cadherin19 to determine suitability for binning on these human/mouse chimeras.

For assay [2], the target named is T2, muCDH19(44-247)::huCDH19(250-364)::muCDH19(363-770), Flag-tagged, on 293T cells (human/mouse chimera).
T2 construct: also called Hu EC3; C137911
In words: FACS, transfected 293T.
Description: as §1

Assay [3] concerns the target T3, (1-43)::FLAG::muCDH19(44-323)::raCDH19(324-327)::muCDH19(328-770), on 293T cells (mouse/rat chimera).
T3 construct: Entry holds leader (1-43), Flag tag and CDH19 part; leader left out; also called Ra EC3c
T3 chain: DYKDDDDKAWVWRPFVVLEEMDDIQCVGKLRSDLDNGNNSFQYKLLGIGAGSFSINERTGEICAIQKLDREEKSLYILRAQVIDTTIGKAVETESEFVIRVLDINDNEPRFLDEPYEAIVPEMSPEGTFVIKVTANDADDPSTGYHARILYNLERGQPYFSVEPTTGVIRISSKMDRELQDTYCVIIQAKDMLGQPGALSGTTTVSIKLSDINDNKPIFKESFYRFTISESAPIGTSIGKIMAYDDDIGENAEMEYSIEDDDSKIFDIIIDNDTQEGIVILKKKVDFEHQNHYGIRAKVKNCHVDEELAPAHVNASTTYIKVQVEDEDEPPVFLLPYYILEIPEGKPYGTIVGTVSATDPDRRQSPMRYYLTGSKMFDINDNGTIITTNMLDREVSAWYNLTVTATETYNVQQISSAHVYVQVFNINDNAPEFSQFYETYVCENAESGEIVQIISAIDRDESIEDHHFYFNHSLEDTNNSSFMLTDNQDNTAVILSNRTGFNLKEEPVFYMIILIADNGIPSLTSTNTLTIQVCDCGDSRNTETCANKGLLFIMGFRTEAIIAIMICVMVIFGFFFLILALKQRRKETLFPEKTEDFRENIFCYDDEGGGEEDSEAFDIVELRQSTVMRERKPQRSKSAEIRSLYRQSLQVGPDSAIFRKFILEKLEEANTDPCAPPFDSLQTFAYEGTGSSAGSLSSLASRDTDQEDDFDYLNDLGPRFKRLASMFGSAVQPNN
Description: FACS, transfected 293T. On the technique in general: Flow cytometry measures light scatter and fluorescence of single cells or particles in a stream.

For a further assay, the target named is T4, Human Cadherin-19 (human, UniProt Q9H159 44-772).
T4 construct: Residues 1-43 are named as the native leader in the construct designations and are left out; also called human CDH19; huCDH19
Description: FACS, endogenous and recombinant human CDH19.

For assay [4], the target named is T5, caCDH19(1-42)::FLAG::caCDH19(43-770), on 293T cells (dog).
T5 construct: also called Ca EC1-5
T5 chain: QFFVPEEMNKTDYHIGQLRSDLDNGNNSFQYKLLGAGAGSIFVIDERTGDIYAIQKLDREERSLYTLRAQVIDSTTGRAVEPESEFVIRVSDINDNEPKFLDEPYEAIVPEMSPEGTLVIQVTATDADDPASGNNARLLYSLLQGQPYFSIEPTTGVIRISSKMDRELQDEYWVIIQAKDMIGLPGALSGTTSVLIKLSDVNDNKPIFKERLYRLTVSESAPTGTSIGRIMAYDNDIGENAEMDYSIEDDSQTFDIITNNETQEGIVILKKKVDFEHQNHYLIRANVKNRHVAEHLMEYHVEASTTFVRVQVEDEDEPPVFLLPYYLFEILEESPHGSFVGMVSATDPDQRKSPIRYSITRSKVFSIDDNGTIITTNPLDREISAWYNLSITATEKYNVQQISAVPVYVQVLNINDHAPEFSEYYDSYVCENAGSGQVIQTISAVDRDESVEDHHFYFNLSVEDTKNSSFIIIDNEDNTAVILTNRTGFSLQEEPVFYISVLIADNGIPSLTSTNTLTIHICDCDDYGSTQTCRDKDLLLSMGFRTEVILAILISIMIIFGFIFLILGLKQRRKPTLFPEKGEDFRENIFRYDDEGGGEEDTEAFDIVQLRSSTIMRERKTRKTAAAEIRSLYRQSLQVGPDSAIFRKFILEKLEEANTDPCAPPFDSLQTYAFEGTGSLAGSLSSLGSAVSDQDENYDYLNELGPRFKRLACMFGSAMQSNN
In words: FACS, transfected 293T.
Description: (§2) The following binding assay was completed in presence of 2 mM CaCl2. […] Cells were then washed one time and the amount of cell associated Alexa647-labelled Ab was quantitated by flow cytometry. The experiments included mock transfected controls.

The target in assay [5] is T6, rhCDH19(1-43)::FLAG::rhCDH19(44-141)::caCDH19(141-770), on 293T cells (rhesus macaque/dog chimera).
T6 construct: Entry holds leader (1-43), Flag tag and CDH19 part; leader left out; also called rh EC1 (dog backbone)
Description: FACS, transfected 293T.
Description: as §2

Assay [6] addresses T7, rhCDH19(1-43)::FLAG::rhCDH19(44-65)::caCDH19(65-770), on 293T cells (rhesus macaque/dog chimera).
T7 construct: Entry holds leader (1-43), Flag tag and CDH19 part; leader left out; also called rh EC1a (dog backbone)
Description: FACS, transfected 293T.
Description: as §2

Description for Human Cadherin-19: FACS binding assays were performed to evaluate the binding of the anti-Cadherin-19 receptor specific antibodies to endogenous Cadherin-19 receptor expressed on the CHL-1 tumor cell lines.
FACs assays were performed by incubating hybridoma supernatants with 10,000 to 25,000 cells in PBS/2% Fetal bovine serum/2 mM Calcium Chloride at 4° C. for one hour followed by two washes with PBS/2% Fetal bovine serum/2 mM Calcium Chloride. Cells were then treated with florochrome-labeled secondary antibodies at 4° C. followed by one wash. The cells were resuspended in 50 μl of PBS/2% FBS and antibody binding was analyzed using a FACSCalibur™ instrument.

B1: hu anti-<huCDH19> 4B10 VH::huIgG1z / 4B10 VL::huKLC (Ab ID 13590) (antibody, V domains shown)
VH: QVQLVESGGGVVQPGRSLRLSCAASGFTFSSYDMHWVRQAPGKGLEWVAVISYDGTNEYYADSVKGRFTISRDTSKNTLYLQMNSLRAEDTAVYYCARERYFDWSFDYWGQGTLVSVSS
VL: EIVLTQSPGTLSLSPGERATLSCRASQSVSNTYLAWYHQRPGQAPRLLIYGASSRATGIPDRFSGSGSGTDFALTISSLEPEDFAVYYCQQYSNSWTFGQGTKVEIKR
As for B1, the binding result (in assay [1]; in assay [2]; in assay [3]; in the assay with Human Cadherin-19) was “binds” each time.

B2: hu anti-<huCDH19> 4A9 VH::huIgG1z / 4A9 VL::huLLC-C1 (Ab ID 13589) (antibody, V domains shown)
VH: QVQLQESGPGLVKPSETLSLTCTVSGGSISGYYWSWIRQPPGKGLEWFAYFSYSGSTNYNPSLKSRVTLSVDTSKNQFSLKLSSVTAADTAVYYCARNWAFHFDFWGQGTLVTVSS
VL: QSVLTQPPSVSGAPGQRVTISCTGSSSNIGTGYAVHWYQQFPGTAPKLLIYGNNNRPSGVPDRFSGSKSGTSASLAITGLQAEDEADYYCQSYDSRLSGWVFGGGTKLTVLG
notes: Recombinant fully human IgG1
For the molecule B2, the binding result in assay [4] was “no binding (tested: 5 ug/ml)”; in assay [5], “binds”; in assay [6], “no binding (tested: 5 ug/ml)”.

B3: hu anti-<huCDH19> 26D1.1 VH::huIgG1z / 26D1.1 VL::huLLC-C2 (Ab ID 13882) (antibody, V domains shown)
VH: QVQLVQSGAEVKKPGASVKVSCKASRYTFTSYYMSWVRQAPGQGLEWMGIIHPSGGDTTYAQKFQGRVTMTGDTSTSTVYMELSSLRSEDTAVYYCARGGIKLWLHFDYWGQGTLVTVSS
VL: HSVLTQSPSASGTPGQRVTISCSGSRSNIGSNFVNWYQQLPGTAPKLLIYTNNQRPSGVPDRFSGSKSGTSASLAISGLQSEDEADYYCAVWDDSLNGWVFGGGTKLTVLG
Regarding B3, the binding result in assay [4] is “no binding (tested: 5 ug/ml)”; in assay [5], “binds”; in assay [6], “binds”.

B4: anti-CDH19 antibody 2G6 (Ab ID 13588) (antibody, human IgG1, lambda, V domains shown)
VH: QVQLVESGGGVVQPGRSLRLSCAASGFTFSSYGMHWVRQAPGKGLEWVAFIWYDGSNKYYADSVKDRFTISRDNSKNTLYLQMKSLRAEDTAVYYCARRAGIIGTIGYYYGMDVWGQGTTVTVSS
VL: SYELTQPPSVSVSPGQTASITCSGDRLGEKYTCWYQQRPGQSPLLVIYQDTKRPSGIPERFSGSNSGNTATLTISGTQAMDEADYYCQAWDSSTVVFGGGTKLTVLG
Consider B4, for which the binding result (in assay [1]; in assay [2]; in assay [3]; with Human Cadherin-19) was “binds” each time.
